Experimental data as given in paper PMC5571939.

Legend:
[1] = target: Alexa488-labeled VAMP2 E78C (GST-cleaved) (rat) (UniProt P63045); assay: fluorescence polarisation; SNARE complex formation by fluorescence anisotropy, all in solution: 700 nM SNAP23, 100 nM Alexa488-labeled VAMP2, 700 nM Sx4 variant, no Munc18c; 25°C; 25 mM HEPES pH 8.0, 200 mM NaCl, 1 mM TCEP, 2% glycerol
[2] = target: Alexa488-labeled VAMP2 E78C (GST-cleaved) (rat) (UniProt P63045); assay: fluorescence polarisation; SNARE complex formation by fluorescence anisotropy, all in solution: 700 nM SNAP23, 100 nM Alexa488-labeled VAMP2, 700 nM Sx4 variant, in the presence of 500 nM HMunc18c; 25°C; 25 mM HEPES pH 8.0, 200 mM NaCl, 1 mM TCEP, 2% glycerol
HL-Munc18c (mouse) = HL-Munc18c (mouse) (UniProt Q60770); assay: BLI; HL-Munc18c immobilised on Ni-NTA biosensors; de-tagged Sx4 constructs 25–400 nM in solution; BLItz; 1:1 fit
HL-Munc18c (mouse), sequence (Q60770 whole entry): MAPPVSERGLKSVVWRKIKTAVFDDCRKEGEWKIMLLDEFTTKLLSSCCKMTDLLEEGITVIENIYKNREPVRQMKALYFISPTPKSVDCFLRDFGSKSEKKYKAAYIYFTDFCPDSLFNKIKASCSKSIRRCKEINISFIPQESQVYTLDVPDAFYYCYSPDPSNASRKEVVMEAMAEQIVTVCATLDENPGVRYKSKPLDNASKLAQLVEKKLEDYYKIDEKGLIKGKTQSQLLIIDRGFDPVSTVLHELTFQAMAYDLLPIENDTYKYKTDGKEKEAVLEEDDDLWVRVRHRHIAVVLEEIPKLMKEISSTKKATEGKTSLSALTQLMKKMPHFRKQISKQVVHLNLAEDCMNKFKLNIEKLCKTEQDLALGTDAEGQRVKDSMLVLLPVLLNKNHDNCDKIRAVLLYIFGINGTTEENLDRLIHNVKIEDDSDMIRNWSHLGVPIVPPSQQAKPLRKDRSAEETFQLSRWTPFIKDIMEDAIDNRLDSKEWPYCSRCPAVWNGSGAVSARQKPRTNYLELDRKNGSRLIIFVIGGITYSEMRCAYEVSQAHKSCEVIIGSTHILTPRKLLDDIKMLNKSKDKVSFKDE

Alexa488-labeled VAMP2 E78C (GST-cleaved) (rat), sequence (P63045 1-96 E78C): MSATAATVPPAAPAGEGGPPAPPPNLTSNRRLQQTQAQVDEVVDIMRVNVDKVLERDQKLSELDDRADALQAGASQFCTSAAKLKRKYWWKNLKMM

Row | kobs of SNARE complex formation with m13 [1] [s⁻¹] | kobs of SNARE complex formation with m13 [2] [s⁻¹] | Kd (HL-Munc18c (mouse)) [µM] | koff (HL-Munc18c (mouse)) [s⁻¹] | kon (HL-Munc18c (mouse)) [M⁻¹ s⁻¹] | Substance
1 | 0.00049 | 0.00048 | – | – | – | Sx4_(30-275)-His (from UniProt Q08850 30-275) (domain or fragment)
2 | – | – | 0.031 | 0.009 | 290000 | Sx4_(1-275)-T4L (de-tagged) (from UniProt Q08850 1-275; P00720 1-164)
3 | – | – | 0.072 | 0.022 | 300000 | Sx4_(1-275) (de-tagged) (from UniProt Q08850 1-275) (domain or fragment)
4 | 0.00048 | 0.0005 | – | – | – | Sx4_(30-275)-T4L-His (from UniProt Q08850 30-275; P00720 1-164)
